Assay: soluble on expression in E. coli; label from the status in PepcDB or PDB records

Row | Sequence | soluble on expression in E. coli
1 | MAAEGDFLMRYRAVSNKLKKRFLRKPNVAEASEQFGQLAKELKQQDCPQYAAFCNLAMARCEQTLFNAPGEALALTDAARLFLASEQETRALRAPGFDENMQAAMNCYSFAIKVYIEMNQPVMAARLSLELGNALKEMNRPGEAIIHFQRAAELQIQMPIEALLSLWEMASCKILTRDYDGALAVLSEMQHMCQERGLQLPGTNTPVGAFMDIIAKCEISRVLLLMLLEPPPQKLLPEHAQTLERYAWESFDSHSQMACQEKDTESLKALQTELW | not soluble
2 | MAAEGKAIAKVNDLVIFVPYVVPGDVVDLQIKRKKNKYAEAEAVKFHELSPVRAVPFCQHYGVCGGCKWQVLPYSEQIRYKQKQVEDNLRRIGKIELPEISPILGSAKTEFYRNKLEFTFSNKRWLTNDEVRQDVKYDQMNAVGFHIPGAFDKVLAIEKCWLQDDISNRIRNAVRDYAYEHDYSFINLRTQEGMLRNLIIRTSSTGELMVIVICKITEDHEMELFKQLLQFIADSFPEITSLLYIINNKCNDTINDLDVHVFKGKDHMFEEMEGLRFKVGPKSFYQTNSEQAYNLYKIAREFAGLTGKELVYDLYTGTGTIANFVSRQARQVIGIEYVPEAIEDAKVNAEINEIKNALFYAGDMKDMLTQEFINQHGRPDVIITDPPRAGMHQDVVDVILFAEPKRIVYVSCNPATQARDLQLLDGKYKVKAVQPVDMFPHTHHVENVVLLELR | not soluble
3 | MAAFEYKALDAKGKQKKGTIEGDNARQVRQRLKEQGMIPVEVVEAKAKAAKSSGSVGFKRGIKTAELALITRQLSTLVQSGMPLEECLRAVSEQAEKPRIRTMIAAVRSKVTEGYPLADSLGDYPHVFDELFRSMVAAGEKSGHLDTVLERLAEYVENRQKMRSKLLQA | not soluble
4 | MAAQSDRYDAVLVQYGLRPVRMEQRGKAVKVYTNRGVFALKPLESEQEAAAVWQSLQHGGPRCLPLYLTRRRSLFATEGGRLYYLQAWHDGESKVEKDAADAFFRELARLHRATVRTIEVSEEEAAAYRKQKKDEWQRARTVWEERIERYEAAWYMSPFQLQCCTYFHEVMRAYSFAEERLDVWEETLKETKQWRIAWVHGKARLSHYIPPYWISWERAHWNSPLFDVIAALRFHVQTMPPLGREWLEGMEEYEKELPLSDGERAFLYSHLAEPRGFVRCLERYEAASRNERNEREYVAALQRRYLAFKNMEALVMHLVQRDAARQQEEAVDNEPPSDESSNG | not soluble
5 | MAARTALGAVCRRLWQGLGNFSVNTSKGNTAKNGGLLLSTNMKWVQFSNLHVDVPKDLTKPVVTISDEPDILYKRLSVLVKGHDKAVLDSYEYFAVLAAKELGISIKA | not soluble
6 | MAASASGKSKTSAGANRRRNRPSPRQRLLDSATNLFTTEGIRVIGIDRILREADVAKASLYSLFGSKDALVIAYLENLDQLWREAWRERTVGMKDPEDKIIAFFDQCIEEEPEKDFRGSHFQNAASEYPRPETDSEKGIVAAVLEHREWCHKTLTDLLTEKNGYPGTTQANQLLVFLDGGLAGSRLVHNISPLETARDLARQLLSAPPADYSI | soluble
7 | MAATVRNLPALFRGLHSKEVCQKMSFSVSAAAKSEILVDTHGSKKVVTLNRPKALNALNLEMVREFYPKLQAWNSSSDVDLVILKGSGDKAFCAGGDVLAVVRSFKDSESGKECTMHKDFFREEYILNHLIGTLNKQYVCLIDGIVMGGGCGLSVNGRFRVATEKTMLAMPETALGLFPDVGGSYFLSRLKGNLGMYLALTGYRLLGADAFHAGLATHFVESSELAKLEKELVNIKDVTENSVDEVIRSFEPKKIPEFSLSKNLAQIRDSFKAKSVEEILASLEKDGSDWAKKQAATLGKMSPTSLKVTHRQITEGSKMSYAKIFTMEYRLTQRFLADKDFHEGCRAILVDKDRKPKWNPATLADVKDSVVDNYFSPLPNNSDLKL | not soluble
8 | MAAWKSWTALRLCATVVVLDMVVCKGFVEDLDESFKENRNDDIWLVDFYAPWCGHCKKLESIWNEVGLEMKSIGSPVKVGKMDATSYSSIASEFGVRGYPTIKLLKGDLAYNYRGPRTKDDIIEFAHRVSGALIRPLPSQQMFEHMQKRHRVFFVYVGGESPLKEKYIDAASELIVYTYFFSASEEVVPEVIFKI | soluble
9 | MADAAEGEQPKLSKKELNKLARKAKKDEKAGEKGGNQQQAAAMDQEDASKDFYGSYGLVNSKEKKVLNFLKVKEINVSNATKDVWVRGRIHTTRSKGKNCFLVLRQGVYTVQVAMFMNEKISKQMLKFVSSISKESIVDVYATINKVDNPIESCTQKDVELLAQQVFVVSTSAPKLPLQIEDASRRAPTDEEKASEQENQLAVVNLDTRLDNRVIDLRTPTSHAIFRIQAGICNQFRNILDVRGFVEIMAPKIISAPSEGGANVFEVSYFKGSAYLAQSPQLYKQMAIAGDFEKVYTIGPVFRAEDSNTHRHMTEFVGLDLEMAFNFHYHEVMETIAEVLTQMFKGLQQNYQDEIAAVGNQYPAEPFQFCEPPLILKYPDAITLLRENGIEIGDEDDLSTPVEKFLGKLVKEKYSTDFYVLDKFPLSVRPFYTMPDAHDERYSNSYDMFMRGEEILSGAQRIHDADMLVERAKHHQVDLAKIQSYIDSFKYGCPPHAGGGIGLERVTMLFLGLHNIRLASLFPRDPKRLTP | not soluble
10 | MADAAKNALSSIFDKTKDVLSTAADATKGYASQAQQAIGKIIPGANHESDPNAAVAAAQAASGQPVDTTGGVPPAQ | not soluble
11 | MADDAGILYENSLDLLKSMKNFAGNVGEGEKKHPYGKAANAARAYGSGMKNSAASFNHSGEQFDKLFEACNTFKDQINGNVLAKLISFKDVECKDVDTQMTQLKKAQKDYANKKSKIVPDQVQVDAAEATLKKLLEEAKATLEKFNKTGCELLTQISADMKTGFDAYCDAAASIN | not soluble
12 | MADDLNAGPKANREFKNSVFTLLFNEEEAIRDISGAVGAMLGKEISPNTPIKKTTLQNALLGGKLNDLSFVLDDKLIVLIEHQSTINKNMPLRMLHYICEIYNHLYEKKDLYRKKKILIPKPVFIVLYNGEEDIKDFEEYLLSDLFKDFDISKEQPYLELRVQVRNINKGHSAEIVKQSPLLLDYVAFVEEVREVNKEEGMTPELAMEKAIENCIKKGILTVFLTRHKEEVMKMLVAEWDYDLDREVARDEGREEGREEGRTEETANNIKDLYRIGVSIETIAKAFGLSEHDVKDILGL | soluble
13 | MADEATRRVVSEIPVLKTNAGPRDRELWVQRLKEEYQSLIRYVENNKNADNDWFRLESNKEGTRWFGKCWYIHDLLKYEFDIEFDIPITYPTTAPEIAVPELDGKTAKMYRGGKICLTDHFKPLWARNVPKFGLAHLMALGLGPWLAVEIPDLIQKGVIQHKEKCNQLEHHHHHH | soluble
14 | MADEIFKAFIGGLPYDSIATDIETILKHCKFTDEELKKFDIHLVHDRDSGSFKGFAYVTFENEQQMNTAISGLNGADFGNRVLKVNRAQQRDRSDRGGGRGGRGGNFGDRGGRGRGAGGFRRGGEGGRFNEGERRGGFGGGGHRGGYRQRRESEEQHKAEETSDPSAPPAERPRLNLKPRTTDAAEIEARKKQEEEETKRRQEKLFQ | not soluble
15 | MADESYDALSRGNKSNLRNEVVDMKKKPFSILFMGIEDYATKGQKGRSDSLIVVTLDPKNKTMKMLSIPRDTRVQLAGDTTGSKTKINAAYSKGGKDETVETVENFLQIPIDKYVTVDFDGFKDVINEVGGIDVDVPFDFDEKSDVDESKRIYFKKGEMHLNGEEALAYARMRKQDKRGDFGRNDRQKQILNALIDRMSSASNIAKIDKIAEKASENVETNIRITEGLALQQIYSGFTSKKIDTLSITGSDLYLGPNNTYYFEPDATNLEKVRKTLQEHLDYTPLEHHHHHH | soluble
16 | MADHNNTPPFDLTKLDHYIKYQPREEAEDFFVHVEVKVLGKGSSPLEISFSTSVYEFVWEDEDCYELVELYEFFTEDAGIDAFEAQFLVNDLILYVNKTTRPLDEDFTGVFKLMAEVTLKPVQLNHAGSQKTESQQP | soluble
17 | MADIDNKEQSELDQDLEDVEEVEEEETGEETKIKARQLTVQMMQNPQILAALQERLDGLVDTPTGYIESLPKVVKRRVNALKNLQVKCAQIEAKFYEEVHDLERKYAVLYQPLFDKRFEIINAIYEPTEEECEWKPDEEDEVSEELKEKAKIEDEKKDEEKEDPKGIPEFWLTVFKNVDLLSDMVQEHDEPILKHLKDIKVKFSDAGQPMSFVLEFHFEPNDYFTNEVLTKTYRMRSEPDDSDPFSFDGPEIMGCTGCQIDWKKGKNVTLKTIKKKQKHKGRGTVRTVTKTVSNDSFFNFFAPPEVPENGDLDDDAEAILAADFEIGHFLRERIIPRSVLYFTGEAIEDDDDDYDEEGEEADEGYQLFEEVKSCSKLFQRWLQ | soluble
18 | MADKSAYMGAGGYGSGYMGSNASSSGYAREDYAQGGNGGGQQQQNQGSGGNTNPGGQVFKARTDQSCYLGP | not soluble
19 | MADKYLTQSPAGEFVMFASDDGEVRVECRFEQETLWLPQATIANLYQITPQAVTQHIKAIYEEGELEQNATCKSYLQVQQEGSRQVSRNRLHYSLPVILAVGYRVRSPRGTQFRQWATQTLQKYLIKGFVMDDERLKNPPVGSSAVPDYFDEMLERIRDIRASERRVYLRVREIFALAADYQPSLKETTQFFQTIQNKLHFACTGHTAAELIHQRADASQPHMGLTSYKGEEVRKDDVTVAKNYLTQDEVSELNRVVNMWLDFAEDQARRRQQIFLRDWQDKLDQFLQFNDREVLQGAGKVTKKMADEKAQAEYSQFAEQQRRLKEAEGEKDIAGLLQWETEPKK | not soluble
20 | MADMKNKYDVKRIIPDELSESLDIFLKNYSETGLSDYNTYLFYGFILKSYKLPRENRYSIKLLVKELQNRGLKVTLIINIYYHALNCLALNDGLKIYGEDFLI | not soluble
21 | MADPNWAYAPPTNYYADHSIAKPIMISGGHPSQDQGHSPKSESFGQSVTTAFNGMVDNLVGSPSSSVQQRNYFTTTPFPISRSPNDRNDDKIMGNGSYGVPIPIPQDGVPQGTPDFQMTPFLQQGGHLIGGSPNGPVQVSGNWYSGGAGIFSTMQQADPSNGMPGMAAEFVNNENGMPGPNGMHQQAMISGSPPFPYQNMMNLTTSFGAMGLGPQQIQQRDPQMFQQPILHEPIQGMAQNGFGQQVFFTQMQNQQHPQGQAQQQLQQLAQQHQQQQNSQQFFGQGPNGMGNGGVMNDWSQRSFGMPQQQAQQNGLPPNFSQNPPRRRGPEDPNGQTPKTLQDIKNNVIEFAKDQHGSRFIQQKLERASLRDKAAIFTPVLENAEELMTDVFGNYVIQKFFEFGNNEQRNQLVGTIRGNVMKLALQMYGCRVIQKALEYVEEKYQHEILGEMEGQVLKCVKDQNGNHVIQKVIERVEPERLQFIIDAFTKNNSDNVYTLSVHPYGCRVIQRVLEYCNEEQKQPVLDALQIHLKQLVLDQYGNYVIQHVIEHGSPSDKEQIVQDVISDDLLKFAQHKFASNVIEKCLTFGGHAERNLIIDKVCGDPNDPSPPLLQMMKDPFANYVVQKMLDVADPQHRKKITLTIKPHIATLRKYNFGKHILLKLEKYFAKQAPANSSNSSSNDQIYEHSPFDIPLGADFSNHPF | not soluble
22 | MADTLGKSELEVIKPQKREIRKGQVRKHIITVKVRNEMGVLARIATLIAGKGYNIEGLSVGETHEKGISRMTIEVIGDDIVIEQVVKQLRRLIDTLKVSDLTDVPHVERELALIKVYTPSSRARDEVLRITEIFRGKVVDVSPDTYTIEVTGDEDKINAMIELLKPFGIKEMARTGKVAMRREMSIKEEENELEHHHHHH | not soluble

From the DeepSol protein solubility set
